Experimental data published in paper doi:10.1101/2020.12.18.423415.

Target: SARS-CoV-2 Spike protein (S protein) (SARS-CoV-2) (UniProt P0DTC2)
Assay: ELISA

Chain of recombinant fragment of human surfactant protein D (rfhSP-D) (P35247 201-375): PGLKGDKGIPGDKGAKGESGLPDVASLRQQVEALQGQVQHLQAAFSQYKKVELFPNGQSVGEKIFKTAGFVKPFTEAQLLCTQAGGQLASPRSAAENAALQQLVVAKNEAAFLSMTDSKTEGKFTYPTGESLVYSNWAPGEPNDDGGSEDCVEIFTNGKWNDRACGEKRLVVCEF

recombinant fragment of human surfactant protein D (rfhSP-D) (from UniProt P35247 201-375) (domain or fragment)
percent decrease of S protein-hACE-2 binding (rfhSP-D increased 5-fold): 50%
